Experimental data reported in patent US20140287471A1, “VARIANT CBH I POLYPEPTIDES WITH REDUCED PRODUCT INHIBITION” (BP CORPORATION NORTN AMERICA INC., priority 2011, published 2014).
Where two headings read alike, the source gives them in different places.

Assays:
[1] = 4-MUL assay, specific activity (Example 2); type: biochemical; conditions: for 268A+411— Measured Specific Activity (SA) / 268A+411— Δ SA* (change in specific activity; ratio of variant: WT): double mutant 268A+411X; for 411— Measured Specific Activity (SA) / 411— Δ SA* (change in specific activity; ratio of variant: WT): 411 single substitution
Description: (§1) CBH I activity on was measured using the 4-MUL assay using gluconolactone to inhibit any BG activity. The fluorogenic 4-MUL substrate (SIGMA) was prepared at 100 mM concentration in DMSO. Assays were run in black 96-well-flat-bottomed plates (Costar) and 4-MU fluorescence was read on a BioTek H4 plate reader (ex/em 365/450 nm). Assay plates were filled with buffer (final concentrations of 100 mM MES, pH 6, 25 mM gluconolactone, with or without cellobiose; cellobiose concentrations are listed with appropriate data sets), to which enzyme mixture was added (10-30 μl, 5 μg/mL final) and then assays were initiated by addition of 4-MUL (0.5 mM final concentration in 100 μl total volume). Enzyme mixtures were either CBH I variants from harvested supernatants or standards. Standards included: a negative control, consisting of harvested supernatant from the CBH I knock-out strain; a positive control, consisting of wild-type CBH I from harvested supernatants; and, a commercial CBH I standard (E-CBHI from Megazymes). Activity standards were run by serial dilution of commercial CBH I from 40 to 0.02 μg/mL and 4-MU (SIGMA, prepared at 20 mM in DMSO) (in dilution increments of 2-fold; all dilutions were made using harvested supernatant from the knock-out control). Kinetic rates were monitored over the first 15 mins following 4-MUL addition; initial rates were calculated based on data in the linear range. After 1 hr, a final endpoint read was taken, both before and after reaction quenching (100 μL of 200 mM Sodium Carbonate, pH 10.0). Activity was calculated for kinetic and endpoint reads; background resulting from the CBH I knock-out supernatant remained negligible. 4MU standard curves and HPLC quantification values were used to calculate specific activity.
The specific activity (SA) of the variant library was evaluated in a secondary 4-MUL assay. […] On average, a mutation at position 268 increases the specific activity by 2.5 fold over that of wild type. A mutation at 268 in combination with 411 is around 1.5-1.6 fold higher than wild-type, on average.

[2] = 4-MUL cellobiose tolerance/inhibition assay, dose-response IC50 (Example 2); type: biochemical; conditions: for synergy of double mutant (measured vs expected additive IC50): measured versus expected additive IC50
Description: as §1
Tolerance/inhibition values represent activity ratios and/or percent activity remaining/percent activity decreased in the presence versus the absence of cellobiose. Tolerant variants show less inhibition in the presence of cellobiose as compared to wild type, where an activity ratio of 1 (with vs. without a given concentration of cellobiose) is equivalent to 0% inhibition by cellobiose, or 100% tolerance. The effect of cellobiose on CBH I variant performance was monitored by dose-response in the 4MUL assay. Dose-response curves were generated by assaying variant activity in the presence of 6-8 different cellobiose concentrations ranging up to 100 mM cellobiose. CBH I samples were diluted to 5 μg/mL final concentration or were used directly in the case of protein quantification levels below 5 μg/mL. Half maximal inhibitory concentration (IC50) values were determined by plotting 4MUL activity versus cellobiose concentration and fitting with a four parameter dose-response fitting algorithm, with zero activity (or 100% inhibition) constrained to background activity (as established by CBH I knockout values) and with automatic outlier elimination (on GraphPad Prism 5).
Harvested supernatants from active variant isolates were evaluated for cellobiose tolerance at 1 mM cellobiose in the 4-MUL activity assay. Table 8 lists the tolerance of variants at 1 mM. […] Additional cellobiose concentrations at 0.25, 5, 10, 50, and 100 mM were tested leading to full dose-response curves for which half maximal inhibitory concentration (IC50) values were generated (Table 8). The IC50 values support that the variant library has decreased product inhibition, or increased tolerance to cellobiose, when compared to the wild-type enzyme (WT IC50=0.03 mM; see first entry, Table 8).
In one example, the cellobiose tolerance of the library was explored in more detail by generating dose-response curves and determining half maximal inhibitory concentration (IC50) values, the point at which the enzyme is 50% inhibited.

[3] = double mutant 268A+411X, averaged IC50 from Tables 8-11, read-out: 268A+411— Measured (merged IC50)
[4] = double mutant 268A+411X, expected IC50 (additive values of single mutations), read-out: 268A+411— Expected IC50
[5] = 411 single substitution, averaged IC50 from Tables 8-11, read-out: 411— Measured (merged IC50)

B1: 268— Ala (protein, UniProt P62694 18-513, looked up, variant R268A)
Exoglucanase 1: QSACTLQSETHPPLTWQKCSSGGTCTQQTGSVVIDANWRWTHATNSSTNCYDGNTWSSTLCPDNETCAKNCCLDGAAYASTYGVTTSGNSLSIGFVTQSAQKNVGARLYLMASDTTYQEFTLLGNEFSFDVDVSQLPCGLNGALYFVSMDADGGVSKYPTNTAGAKYGTGYCDSQCPRDLKFINGQANVEGWEPSSNNANTGIGGHGSCCSEMDIWEANSISEALTPHPCTTVGQEICEGDGCGGTYSDNAYGGTCDPDGCDWNPYRLGNTSFYGPGSSFTLDTTKKLTVVTQFETSGAINRYYVQNGVTFQQPNAELGSYSGNELNDDYCTAEEAEFGGSSFSDKGGLTQFKKATSGGMVLVMSLWDDYYANMLWLDSTYPTNETSSTPGAVRGSCSTSSGVPAQVESQSPNAKVTFSNIKFGPIGSTGNPSGGNPPGGNRGTTTTRRPATTTGSSPGPTQSHYGQCGGIGYSGPTVCASGTTCQVLNPYYSQCL
- SA (μmol 4 MU/min/mg) (MUL Data) ([1]; primary screening, 10 μL enzyme, n=1): 1.42 μmol 4 MU/min/mg
- Tolerance at 1 mM CB (MUL Data) ([2]; 1 mM cellobiose, primary screening, n=1): 48%
- IC50 ([2]; primary screening, 10 μL enzyme, cellobiose range 0.0001-100 mM, n=1, read-out: IC50 (MUL Data)): 0.87 mM

B2: 268A+411Asp (protein, UniProt P62694 18-513, looked up, variant R268A R411D)
Exoglucanase 1: QSACTLQSETHPPLTWQKCSSGGTCTQQTGSVVIDANWRWTHATNSSTNCYDGNTWSSTLCPDNETCAKNCCLDGAAYASTYGVTTSGNSLSIGFVTQSAQKNVGARLYLMASDTTYQEFTLLGNEFSFDVDVSQLPCGLNGALYFVSMDADGGVSKYPTNTAGAKYGTGYCDSQCPRDLKFINGQANVEGWEPSSNNANTGIGGHGSCCSEMDIWEANSISEALTPHPCTTVGQEICEGDGCGGTYSDNAYGGTCDPDGCDWNPYRLGNTSFYGPGSSFTLDTTKKLTVVTQFETSGAINRYYVQNGVTFQQPNAELGSYSGNELNDDYCTAEEAEFGGSSFSDKGGLTQFKKATSGGMVLVMSLWDDYYANMLWLDSTYPTNETSSTPGAVDGSCSTSSGVPAQVESQSPNAKVTFSNIKFGPIGSTGNPSGGNPPGGNRGTTTTRRPATTTGSSPGPTQSHYGQCGGIGYSGPTVCASGTTCQVLNPYYSQCL
- 268A+411— Measured Specific Activity (SA) [1]: 2.21 μmol 4 MU/min/mg CBH I
- 268A+411— Δ SA* (change in specific activity; ratio of variant: WT) [1]: 2.9
- IC50 [2, 3]: 11.5 mM
- IC50 [2, 4]: 2.28 mM
- synergy of double mutant (measured vs expected additive IC50) ([2]; double mutant 268A+411X): 5.0

B3: 268Glu (protein, UniProt P62694 18-513, looked up, variant R268E)
Exoglucanase 1: QSACTLQSETHPPLTWQKCSSGGTCTQQTGSVVIDANWRWTHATNSSTNCYDGNTWSSTLCPDNETCAKNCCLDGAAYASTYGVTTSGNSLSIGFVTQSAQKNVGARLYLMASDTTYQEFTLLGNEFSFDVDVSQLPCGLNGALYFVSMDADGGVSKYPTNTAGAKYGTGYCDSQCPRDLKFINGQANVEGWEPSSNNANTGIGGHGSCCSEMDIWEANSISEALTPHPCTTVGQEICEGDGCGGTYSDNEYGGTCDPDGCDWNPYRLGNTSFYGPGSSFTLDTTKKLTVVTQFETSGAINRYYVQNGVTFQQPNAELGSYSGNELNDDYCTAEEAEFGGSSFSDKGGLTQFKKATSGGMVLVMSLWDDYYANMLWLDSTYPTNETSSTPGAVRGSCSTSSGVPAQVESQSPNAKVTFSNIKFGPIGSTGNPSGGNPPGGNRGTTTTRRPATTTGSSPGPTQSHYGQCGGIGYSGPTVCASGTTCQVLNPYYSQCL
- 268— Measured Specific Activity (SA) ([1]; 268 single substitution): 1.84 μmol 4 MU/min/mg CBH I
- 268— Δ SA* (change in specific activity; ratio of variant: WT) ([1]; 268 single substitution): 2.4
- IC50 ([2]; 268 single substitution, averaged IC50 from Tables 8-11, read-out: 268— Measured (merged IC50)): 0.63 mM

B4: 268A+411Glu (protein, UniProt P62694 18-513, looked up, variant R268A R411E)
Exoglucanase 1: QSACTLQSETHPPLTWQKCSSGGTCTQQTGSVVIDANWRWTHATNSSTNCYDGNTWSSTLCPDNETCAKNCCLDGAAYASTYGVTTSGNSLSIGFVTQSAQKNVGARLYLMASDTTYQEFTLLGNEFSFDVDVSQLPCGLNGALYFVSMDADGGVSKYPTNTAGAKYGTGYCDSQCPRDLKFINGQANVEGWEPSSNNANTGIGGHGSCCSEMDIWEANSISEALTPHPCTTVGQEICEGDGCGGTYSDNAYGGTCDPDGCDWNPYRLGNTSFYGPGSSFTLDTTKKLTVVTQFETSGAINRYYVQNGVTFQQPNAELGSYSGNELNDDYCTAEEAEFGGSSFSDKGGLTQFKKATSGGMVLVMSLWDDYYANMLWLDSTYPTNETSSTPGAVEGSCSTSSGVPAQVESQSPNAKVTFSNIKFGPIGSTGNPSGGNPPGGNRGTTTTRRPATTTGSSPGPTQSHYGQCGGIGYSGPTVCASGTTCQVLNPYYSQCL
- 268A+411— Δ SA* (change in specific activity; ratio of variant: WT) [1]: 0.6
- IC50 [2, 3]: 14.4 mM
- IC50 [2, 4]: 3.81 mM
- synergy of double mutant (measured vs expected additive IC50) ([2]; double mutant 268A+411X): 3.8

B5: 411Arg (protein, UniProt P62694 18-513, looked up)
Exoglucanase 1: QSACTLQSETHPPLTWQKCSSGGTCTQQTGSVVIDANWRWTHATNSSTNCYDGNTWSSTLCPDNETCAKNCCLDGAAYASTYGVTTSGNSLSIGFVTQSAQKNVGARLYLMASDTTYQEFTLLGNEFSFDVDVSQLPCGLNGALYFVSMDADGGVSKYPTNTAGAKYGTGYCDSQCPRDLKFINGQANVEGWEPSSNNANTGIGGHGSCCSEMDIWEANSISEALTPHPCTTVGQEICEGDGCGGTYSDNRYGGTCDPDGCDWNPYRLGNTSFYGPGSSFTLDTTKKLTVVTQFETSGAINRYYVQNGVTFQQPNAELGSYSGNELNDDYCTAEEAEFGGSSFSDKGGLTQFKKATSGGMVLVMSLWDDYYANMLWLDSTYPTNETSSTPGAVRGSCSTSSGVPAQVESQSPNAKVTFSNIKFGPIGSTGNPSGGNPPGGNRGTTTTRRPATTTGSSPGPTQSHYGQCGGIGYSGPTVCASGTTCQVLNPYYSQCL
- 411— Measured Specific Activity (SA) [1]: 0.83 μmol 4 MU/min/mg CBH I
- 411— Δ SA* (change in specific activity; ratio of variant: WT) [1]: 1.1
- IC50 [2, 5]: 0.05 mM

B6: 411His (protein, UniProt P62694 18-513, looked up, variant R411H)
Exoglucanase 1: QSACTLQSETHPPLTWQKCSSGGTCTQQTGSVVIDANWRWTHATNSSTNCYDGNTWSSTLCPDNETCAKNCCLDGAAYASTYGVTTSGNSLSIGFVTQSAQKNVGARLYLMASDTTYQEFTLLGNEFSFDVDVSQLPCGLNGALYFVSMDADGGVSKYPTNTAGAKYGTGYCDSQCPRDLKFINGQANVEGWEPSSNNANTGIGGHGSCCSEMDIWEANSISEALTPHPCTTVGQEICEGDGCGGTYSDNRYGGTCDPDGCDWNPYRLGNTSFYGPGSSFTLDTTKKLTVVTQFETSGAINRYYVQNGVTFQQPNAELGSYSGNELNDDYCTAEEAEFGGSSFSDKGGLTQFKKATSGGMVLVMSLWDDYYANMLWLDSTYPTNETSSTPGAVHGSCSTSSGVPAQVESQSPNAKVTFSNIKFGPIGSTGNPSGGNPPGGNRGTTTTRRPATTTGSSPGPTQSHYGQCGGIGYSGPTVCASGTTCQVLNPYYSQCL
- 411— Measured Specific Activity (SA) [1]: 0.80 μmol 4 MU/min/mg CBH I
- 411— Δ SA* (change in specific activity; ratio of variant: WT) [1]: 1.0
- IC50 [2, 5]: 2.93 mM

B7: 268A+411Gln (protein, UniProt P62694 18-513, looked up, variant R268A R411Q)
Exoglucanase 1: QSACTLQSETHPPLTWQKCSSGGTCTQQTGSVVIDANWRWTHATNSSTNCYDGNTWSSTLCPDNETCAKNCCLDGAAYASTYGVTTSGNSLSIGFVTQSAQKNVGARLYLMASDTTYQEFTLLGNEFSFDVDVSQLPCGLNGALYFVSMDADGGVSKYPTNTAGAKYGTGYCDSQCPRDLKFINGQANVEGWEPSSNNANTGIGGHGSCCSEMDIWEANSISEALTPHPCTTVGQEICEGDGCGGTYSDNAYGGTCDPDGCDWNPYRLGNTSFYGPGSSFTLDTTKKLTVVTQFETSGAINRYYVQNGVTFQQPNAELGSYSGNELNDDYCTAEEAEFGGSSFSDKGGLTQFKKATSGGMVLVMSLWDDYYANMLWLDSTYPTNETSSTPGAVQGSCSTSSGVPAQVESQSPNAKVTFSNIKFGPIGSTGNPSGGNPPGGNRGTTTTRRPATTTGSSPGPTQSHYGQCGGIGYSGPTVCASGTTCQVLNPYYSQCL
- 268A+411— Measured Specific Activity (SA) [1]: 1.22 μmol 4 MU/min/mg CBH I
- 268A+411— Δ SA* (change in specific activity; ratio of variant: WT) [1]: 1.6
- IC50 [2, 3]: 13.7 mM
- IC50 [2, 4]: 3.09 mM
- synergy of double mutant (measured vs expected additive IC50) ([2]; double mutant 268A+411X): 4.5
